Measured values from article PMC4070925.
Residue numbers refer to the chain shown, from its start.

B1: Bivalent Linker 1 (structured_DNA)
DNA: AGATGCCTGTCGAGCATGCTGGTTGGTGTGGTTGGATTGGGGGGCAGAATGCCAGTTTAGCGTACAGTCCGTGGTAGGGCAGGTTGGGGTGACTGTAGCTAAACTGCTTTGTCGACGGG
B2: Bivalent Linker 4 (structured_DNA)
DNA: B1 DNA with A36G, G40T, C45A, G47T, T50A, G51A, C52G
B3: Bivalent Linker 2 (structured_DNA)
DNA: AGATGCCTGTCGAGCATGCTGGTTGGTGTGGTTGGTTGGTTGGCGTTCAAAGCAGTCTTGGGCTAAGTCCGTGGTAGGGCAGGTTGGGGTGACTGTAGCTAAACTGCTTTGTCGACGGG
B4: Truncate III (structured_DNA)
DNA: GGTTGGTGTGGTTGGTTGGTTGGCGTTCAAAGCAGTCTTGGGCTAAGTCCGTGGTAGGGCAGGTTGGGGTGACT
B5: Bivalent Linker 5 (structured_DNA)
DNA: AGATGCCTGTCGAGCATGCTGGTTGGTGTGGTTGGAAGTAGGTGGTTCAAAGCAGTGAAGGGTACAGTCCGTGGTAGGGCAGGTTGGGGTGACTGTAGCTAAACTGCTTTGTCGACGGG
B6: Truncate II (structured_DNA)
DNA: AGATGCCTGTCGAGCATGCTGGTTGGTGTGGTTGGTTGGTTGGCGTTCAAAGCAGTCTTGGGCTAAGTCCGTGGTAGGGCAGGTTGGGGTGACT
B7: Bivalent Linker 6 (structured_DNA)
DNA: AGATGCCTGTCGAGCATGCTGGTTGGTGTGGTTGGCGGGGGCCCTCTATAGTTGCGTTCTGGATGAGTCCGTGGTAGGGCAGGTTGGGGTGACTGTAGCTAAACTGCTTTGTCGACGGG
B8: Truncate I (structured_DNA)
DNA: GGTTGGTGTGGTTGGTTGGTTGGCGTTCAAAGCAGTCTTGGGCTAAGTCCGTGGTAGGGCAGGTTGGGGTGACTGTAGCTAAACTGCTTTGTCGACGGG
B9: Bivalent Linker 3 (structured_DNA)
DNA: AGATGCCTGTCGAGCATGCTGGTTGGTGTGGTTGGGTAGGGGCCCAGCATGACAGTTTTTGCCAAAGTCCGTGGTAGGGCAGGTTGGGGTGACTGTAGCTAAACTGCTTTGTCGACGGG

Biological target: thrombin (UniProt P00734;P00734 315-363;364-622)
Experiment: plate binding assay (streptavidin-peroxidase); Thrombin-coated plate; 5'-biotin aptamer in HEPES buffer (full composition not in material) 1 h; washes 40 mM HEPES pH 7.5, 0.05% Tween-20; block 1 mg/ml BSA +

Binder | apparent K (half saturation)
B1 | 1.4 nM
B2 | 0.4 nM
B3 | 0.2 nM
B4 | 0.5 nM
B5 | 1 nM
B6 | 0.5 nM
AGTCCGTGGTAGGGCAGGTTGGGGTGACT (structured_DNA) [Apt-29] | 0.7 nM
B7 | ~20 nM
B8 | 1 nM
B9 | 0.4 nM
